# Key:
# Assay in all cases: potentiometry
# Details in all cases: 298 K, stated as 40 mM (SDS), 4 mM HClO4, no buffer
# [1] = molecular target: Nterm1 (position 1, -----FFHHIF)
# [2] = molecular target: Lys14 (position 14, …)
# [3] = molecular target: Nterm1 (position 1, -----FIHHIF)
# [4] = 1:1 Zn(II) complex (Zn bound by three His imidazoles; N-terminus and Lys not coordinated)
Protein,"pKa [1, 4]",pKa ([1]; metal-free peptide),"pKa ([2]; 1:1 Cu(II) complex, ATCUN 4N square-planar binding (N-terminal amine, two amides, His3 imidazole))","pKa [2, 4]",pKa ([2]; metal-free peptide),"pKa [3, 4]",pKa ([3]; metal-free peptide)
FFHHIFRGIVHVGKTIHRLVTG [Piscidin 1 (Morone saxatilis x Morone chrysops (hybrid striped bass))],7.88,8.36,9.82,10.09,10.02,,
FFHHIFRGIVHVGKTIHKLVTG [Piscidin 2 (Morone saxatilis x Morone chrysops (hybrid striped bass))],8.04,8.82,,,,,
FIHHIFRGIVHAGRSIGRFLTG [Piscidin 3 (Morone saxatilis x Morone chrysops (hybrid striped bass))],,,,,,7.29,8.26
